Assay results: paper PMC7584396

Target: prefusion conformation-stabilized SARS-CoV-2 spike ectodomain (S2P_(ecto)) with AviTag and 8x-His tag (SARS-CoV-2) (UniProt P0DTC2)
Test: ELISA

COV2-2130 (human mAb, recombinant IgG1) (antibody)
percent inhibition of hACE2 binding to S2P (ecto) at 500 ng/mL: 100%
